The source of these data is patent US20230107644A1.

Positions count from the first letter of the chain named.

In assay [1] the target is NA (N2) of influenza virus A/Wisconsin/67/2005 (influenza A virus A/Wisconsin/67/2005 (H3N2)).
The target in assay [2] is N2 A/shorebird/Delaware/127/1997 (Influenza A virus (A/shorebird/Delaware/127/1997)).
Assay [3] deals with NA (N2) of influenza virus A/Brisbane/10/2007 (influenza A virus A/Brisbane/10/2007 (H3N2)).
Assay [4] deals with HA (H3) of influenza virus A/Wisconsin/67/2005 (influenza A virus A/Wisconsin/67/2005 (H3N2)).
Assay [5] has as its target HA (H3) of influenza virus A/Perth/16/2009 (influenza A virus A/Perth/16/2009 (H3N2)).
Assay [6] concerns the target HA (H3) of influenza virus A/Brisbane/10/2007 (influenza A virus A/Brisbane/10/2007 (H3N2)).
The target in assay [7] is H3 A/duck/Shantou/1283/2001 (Influenza A virus (A/duck/Shantou/1283/2001)).
Assay [8] deals with HA (H3) of influenza virus A/Switzerland/9715283/2013 (influenza A virus A/Switzerland/9715283/2013 (H3N2)). The experiment in a line: cell-based or functional assay.
Assay [9] concerns the target HA (H3) of influenza virus A/Wisconsin/67/2005 (influenza A virus A/Wisconsin/67/2005 (H3N2)). The experiment in a line: cell-based or functional assay.
Assay [10] has as its target HA (H3) of influenza virus A/Perth/16/2009 (influenza A virus A/Perth/16/2009 (H3N2)). The experiment in a line: cell-based or functional assay.
Assay [11] addresses HA (H3) of influenza virus A/Brisbane/10/2007 (influenza A virus A/Brisbane/10/2007 (H3N2)). Description: cell-based or functional assay.
Assay [12] has as its target HA (H3) of influenza virus A/Victoria/210/2009 (influenza A virus A/Victoria/210/2009 (H3N2)). Description: cell-based or functional assay.
In assay [13] the target is HA (H3) of influenza virus A/Uruguay/716/2007 (influenza A virus A/Uruguay/716/2007 (H3N2)). Description: cell-based or functional assay.
In assay [14] the target is HA (H3) of influenza virus A/Texas/50/2012 (influenza A virus A/Texas/50/2012 (H3N2)). The experiment in a line: cell-based or functional assay.
The target in assay [15] is HA (H3) of influenza virus A/Victoria/361/2011 (influenza A virus A/Victoria/361/2011 (H3N2)). Description: cell-based or functional assay.
Assay [16] concerns the target NA (N2) of influenza virus A/Wisconsin/67/2005 (influenza A virus A/Wisconsin/67/2005 (H3N2)). The experiment in a line: cell-based or functional assay.
Assay [17] concerns the target NA (N2) of influenza virus A/Victoria/361/2011 (influenza A virus A/Victoria/361/2011 (H3N2)). The experiment in a line: cell-based or functional assay.
The target in assay [18] is NA (N2) of influenza virus A/Texas/50/2012 (influenza A virus A/Texas/50/2012 (H3N2)). The experiment in a line: cell-based or functional assay.
Assay [19] deals with NA (N2) of influenza virus A/Perth/16/2009 (influenza A virus A/Perth/16/2009 (H3N2)). The experiment in a line: cell-based or functional assay.
Assay [20] concerns the target NA (N2) of influenza virus A/Uruguay/716/2007 (influenza A virus A/Uruguay/716/2007 (H3N2)). The experiment in a line: cell-based or functional assay.
The target in assay [21] is NA (N2) of influenza virus A/Brisbane/10/2007 (influenza A virus A/Brisbane/10/2007 (H3N2)). The experiment in a line: cell-based or functional assay.

B1: 1122B9 hmAb (antibody, V domains shown)
VH: EVQLVESGGGLVQPGGSLRLSCAASGFTFSGYAMSWVRQAPGKGLECVSGIIGSGGSTYSADSVKGRFTISRDNSKNTLDLEMNSLRAEDTAVYYCAKHTKSHYYSGMGVWGQGTTVTVSS
VL: DIQMTQSPSSLSASVGDRVTITCQASQDISNYLNWYQQRPGKAPKLLIYDAANLETGVPSRFSGSGSATQFTFTISGLQPEDFATYYCQQYDNLPLTFGGGTKVEIK
Consider B1, for which the ELISA area under curve (AUC) amounted to 35.3 in assay [1], 25.2 in assay [2] and 35.2 in [3].

B2: 1086G8 hmAb (antibody, V domains shown)
VH: EVQLLESGGGLVQPGGSLRLSCTASGFTFASDAMNWVRQAPGKGLEWVSAISGNGGITYFADSVKGRFTISRDNSKDTLYLQMDSLRAEDTAVYYCAKGVAPSHFNLLTGYYAGHYYFDFWGQGTLVTVSS
VL: EIVMTQSPATLSVSPGERATLSCRASQSVRHNLAWYQHKPGQPPRLLIYGASTRAASVPARFSGSGSGTDFTLTISSLQSEDFAVYYCQQYNHWPPYTFGQGTKLEIK
B2: the ELISA area under curve (AUC) is 33.7 in assay [4]; 28 in assay [5]; 31.2 in [6]; 11.4 with H1 protein; 31.4 in [7]; 25.2 in the assay with H7 protein. Moreover, the NT50 in [8] worked out at 12.5 µg/mL; in assay [9], 3.13 µg/mL; in assay [10] it was 6.25 µg/mL; in assay [11] it was 0.4 µg/mL; in assay [12], 12.5 µg/mL; in [13] it was 0.4 µg/mL. In addition, the NT50 came out at 6.25 µg/mL in [14] and 0.2 µg/mL in assay [15].

B3: 1122A11 hmAb (antibody, V domains shown)
VH: QVQLVQSGAEVSKPGASVKVSCKASGYSFTSQSLGWVRQAPGQGLEWMGIINPSGGITNYAHKFQGRVTMTRDTSTSTVYMELSSLRSEDTALYYCVRDLSHYNEVGHDRAYYYGMDIWGQGTTVTVSS
VL: SYELIQPPSVSVSPGQTASITCSGDKLGKKYTCWYQQKPGQSPVLVIYQDNKRPSGIPERFSGSNSGNTATLTISGTQAMDEADYYCQAWDSSAVVFGGGTKLTVL
As to B3, the NT50 in assay [16] came out at 25 µg/mL; in [17] it was 1.6 µg/mL; in assay [18] it was 3.13 µg/mL; in assay [19] it was 0.2 µg/mL; in assay [20], 0.2 µg/mL; in assay [21], 6.25 µg/mL. The ELISA area under curve (AUC) was found to be 34.7 in [1], 15.2 in assay [2] and 35.8 in assay [3].

B4: 1092E4 hmAb (antibody, V domains shown)
VH: QVQLVQSGAEVKKPGASVKVSCKASGYSFTRYGISWVRQAPGQGLEWMGWISAYTGNTDYAQKFQGRITMTTDTSTSTVYMELRSLRSDDTAVYYCARDHPQGVVILGSYYYGMDVWGQGNTVTVSS
VL: EIVLTQSPGTLSLSPGERATLSCRASQSVTSRYLAWYQQKLGQAPRLLIYGASSRATGIPDRFSGSGSGTDFTLTISSLEPEDFAVYYCQQSGSPRTFGQGTKVEIK
Regarding B4, the ELISA area under curve (AUC) is 32.5 in assay [4]; 33.4 in assay [5]; 31.7 in [6]; 18.5 with H1 protein; 28.7 in assay [7]; 26 with H7 protein. For the same molecule, the NT50 in assay [8] is 6.25 µg/mL; in assay [9] it was 0.2 µg/mL; in assay [10], 3.13 µg/mL; in [11] it was 0.1 µg/mL; in assay [12], 6.25 µg/mL; in assay [13], 0.1 µg/mL. Moreover, the NT50 in assay [14] was 6.25 µg/mL; in assay [15], 0.1 µg/mL.

B5: 1092C4 hmAb (antibody, V domains shown)
VH: B4 VH with Q1E, V79A, H100L
VL: B4 VL with F84L
As to B5, the ELISA area under curve (AUC) in assay [4] was found to be 33.7; in [5], 31.4; in [6], 32.3; with H1 protein it was 9.8; in [7] it was 34.4; in the assay with H7 protein, 27.3. Also, the NT50 turned out to be 0.78 µg/mL in [8]; 1.6 µg/mL in [9]; 3.13 µg/mL in assay [10]; 0.1 µg/mL in assay [11]; 6.25 µg/mL in assay [12]; 0.2 µg/mL in assay [13]. Moreover, the values for the NT50 in assay [14] and in assay [15] were 6.25 µg/mL and 0.1 µg/mL, respectively.
